Results on five molecules are retold here after paper PMC10950897, “VCF1 is a p97/VCP cofactor promoting recognition of ubiquitylated p97-UFD1-NPL4 substrates” (Nature Communications, 2024).

The test system of assay [1] is p97 with UFD1-NPL4, p47 or FAF1. The experiment in a line: In vitro binding with p97 cofactors (GST, StrepTactin, p47, p97 or FLAG pulldown). Set-up: species or system human. The note with it: high/increasing concentrations. On the procedure: All in vitro binding experiments were performed in EBC or RIPA buffer as indicated. Recombinant Biotin-tagged K48-linked poly-ubiquitin chains (2−7) and K48-linked poly-ubiquitin chains (2−16) were purchased from R&D Systems and Enzo Life Science, respectively. Recombinant proteins were incubated with Strep-Tactin Sepharose (IBA), Glutathione agarose (Gold Biotechnology) or […] Fab-trap agarose (ChromoTek) overnight on an end-over-end rotator at 4 °C, washed six times with EBC or RIPA buffer, and resuspended in 2×Laemmli sample buffer. For p97, VCF1 or p47 pulldowns, antibodies (0.5 µg/sample) were coupled to agarose beads, incubated with recombinant proteins or cell lysates and washed with the indicated buffer. To assess p97-UFD1-NPL4 binding to ubiquitylated proteins in total cell extracts, U2OS cells were lysed in EBC buffer supplemented with protease and phosphatase inhibitors, sonicated and incubated on ice for 10 min. Lysates were cleared by centrifugation for 10 min at 16,100 × g. Cell lysate (40 µg) was added to recombinant proteins in EBC buffer, incubated overnight on the rotator with […] Fab-trap agarose (ChromoTek), and beads were washed six times.

The next assay has as its target p97. The note with it: reported for p47/NSFL1C; cited from earlier work. The source says:
Through in silico searches for candidate regulators of p97 function, we came across FAM104A, a virtually uncharacterized protein detected in unbiased large-scale proteomic profiles of p97 interaction networks along with known p97 cofactors (Supplementary Fig. 1a)[20],[21], but whose precise connection to p97 has not been studied. In humans, FAM104A encodes a relatively small protein of 186 amino acids that contains no annotated domains but is conserved across vertebrates (Supplementary Fig. 1b) and is broadly expressed, albeit at low levels, in human tissues. For reasons described in the follo ...

In assay [2] the test system is GFP-VCF1 WT interactome, U2OS cells. Description: GFP IP mass spectrometry of VCF1-interacting proteins, partially denaturing RIPA buffer (+DOX/-DOX). Format: binding, human. The procedure: (§1) U2OS (catalog no. HTB-96) cells were obtained from ATCC. HEK293-EBNA1-6E cells were a kind gift from Yves Durocher (National Research Council Canada, Montreal, Canada). All mammalian cell lines were cultured under standard conditions at 37 °C and 5% CO2 in DMEM (Thermo) supplemented with 10% FBS (v/v) and penicillin-streptomycin (Thermo). Recombination cloning-compatible U2OS cells were generated using the Flp-In T-Rex Core Kit (Thermo) according to the manufacturer’s instructions and maintained under selection using Blasticidin (Invivogen) and Zeocin (Thermo). To generate cell lines stably expressing GFP-VCF1, U2OS Flp-In T-Rex cells (Thermo) were co-transfected with GFP-VCF1 constructs and pOG44 (Thermo) plasmids, followed by selection with Hygromycin (Invitrogen). Single clones were carefully screened for uniform expression of ectopic GFP-VCF1 at low levels and maintained under selection with Blasticidin and Hygromycin. To induce GFP-VCF1 expression, cells were treated with Doxycycline (DOX) (0.5 µg/ml) for 16 h. U2OS cell lines stably expressing Ub(G76V)-GFP or Ub(G76V)-GFP-20AA were described previously. A U2OS cell line stably expressing Ub(G76V)-GFP-NES was generated under G418 (Invivogen) selection. Clones with low baseline GFP expression were visually screened for low basal GFP expression. All cell lines used in this study were regularly tested negative for mycoplasma infection and were not authenticated.
Immunoblotting was performed as previously described. Immunoprecipitation (IP) of HA-tagged proteins was performed using Anti-HA Affinity matrix (Roche) under denaturing conditions, unless otherwise stated. GFP-trap and […] Fab-trap agarose (Chromotek) were used according to manufacturer’s instructions. Cell lysis was performed using RIPA buffer (140 mM NaCl; 10 mM Tris-HCl, pH 8.0; 0.1% sodium deoxycholate; 1% Triton X-100; 0.1% SDS; 1 mM EDTA; 0.5 mM EGTA) or EBC buffer (50 mM Tris, pH 7.5; 150 mM NaCl; 1 mM EDTA; 0.5% NP-40, 1 mM DTT). IPs were washed in non-denaturing buffer (50 mM Tris-HCl, pH 7.5; 150 mM NaCl; 0.5 mM EDTA). […]

Assay [3] relates to GFP-VCF1 WT / N167A interactome, U2OS cells. The experiment in a line: GFP IP mass spectrometry, comparison of VCF1 WT and N167A interactomes (WT/N167A). The class given is binding, human. The note with it: GFP-VCF1 WT / N167A IPs, partially denaturing RIPA buffer. On the procedure: as §1, with “All cell lines used in this study were regularly tested negative for mycoplasma infection and were not authenticated.” left out

B1: p47: p97 cofactor (protein)
chain: MAAERQEALREFVAVTGAEEDRARFFLESAGWDLQIALASFYEDGGDEDIVTISQATPSSVSRGTAPSDNRVTSFRDLIHDQDEDEEEEEGQRFYAGGSERSGQQIVGPPRKKSPNELVDDLFKGAKEHGAVAVERVTKSPGETSKPRPFAGGGYRLGAAPEEESAYVAGEKRQHSSQDVHVVLKLWKSGFSLDNGELRSYQDPSNAQFLESIRRGEVPAELRRLAHGGQVNLDMEDHRDEDFVKPKGAFKAFTGEGQKLGSTAPQVLSTSSPAQQAENEAKASSSILIDESEPTTNIQIRLADGGRLVQKFNHSHRISDIRLFIVDARPAMAATSFILMTTFPNKELADESQTLKEANLLNAVIVQRLT
modifications: left off: His6, end not stated, state not stated
notes: p97 cofactor
In general, Kd refers to the free concentration of one partner at which half of the binding sites on the other are occupied at equilibrium, for simple one-to-one binding. For the molecule B1, the “displacement of p97-bound cofactors” value in assay [1] was “did not lead to dissociation of VCF1 from p97”. The Kd at p97 was 200 to 500 nM.

B2: Isocitrate dehydrogenase [NAD] subunit gamma, mitochondrial (protein, UniProt P51553 40-393, looked up)
Isocitrate dehydrogenase …: FSEQTIPPSAKYGGRHTVTMIPGDGIGPELMLHVKSVFRHACVPVDFEEVHVSSNADEEDIRNAIMAIRRNRVALKGNIETNHNLPPSHKSRNNILRTSLDLYANVIHCKSLPGVVTRHKDIDILIVRENTEGEYSSLEHESVAGVVESLKIITKAKSLRIAEYAFKLAQESGRKKVTAVHKANIMKLGDGLFLQCCREVAARYPQITFENMIVDNTTMQLVSRPQQFDVMVMPNLYGNIVNNVCAGLVGGPGLVAGANYGHVYAVFETATRNTGKSIANKNIANPTATLLASCMMLDHLKLHSYATSIRKAVLASMDNENMHTPDIGGQGTTSEAIQDVIRHIRVINGRAVEA
notes: prey protein
Take B2: in assay [2], the “Relative protein level (log2) WT/noDox” value is on record as 1.726 log2.

B3: U4/U6.U5 tri-snRNP-associated protein 2 (protein, UniProt Q53GS9 1-565, looked up)
Ubiquitin carboxyl-terminal …: MSGRSKRESRGSTRGKRESESRGSSGRVKRERDREREPEAASSRGSPVRVKREFEPASAREAPASVVPFVRVKREREVDEDSEPEREVRAKNGRVDSEDRRSRHCPYLDTINRSVLDFDFEKLCSISLSHINAYACLVCGKYFQGRGLKSHAYIHSVQFSHHVFLNLHTLKFYCLPDNYEIIDSSLEDITYVLKPTFTKQQIANLDKQAKLSRAYDGTTYLPGIVGLNNIKANDYANAVLQALSNVPPLRNYFLEEDNYKNIKRPPGDIMFLLVQRFGELMRKLWNPRNFKAHVSPHEMLQAVVLCSKKTFQITKQGDGVDFLSWFLNALHSALGGTKKKKKTIVTDVFQGSMRIFTKKLPHPDLPAEEKEQLLHNDEYQETMVESTFMYLTLDLPTAPLYKDEKEQLIIPQVPLFNILAKFNGITEKEYKTYKENFLKRFQLTKLPPYLIFCIKRFTKNNFFVEKNPTIVNFPITNVDLREYLSEEVQAVHKNTTYDLIANIVHDGKPSEGSYRIHVLHHGTGKWYELQDLQVTDILPQMITLSEAYIQIWKRRDNDETNQQGA
notes: prey protein
For B3, the “Relative protein level (log2) WT/noDox” value in assay [2] is listed as 1.44 log2.

B4: Complement component 1 Q subcomponent-binding protein, mitochondrial (protein, UniProt Q07021 74-282, looked up)
Complement component 1 Q …: LHTDGDKAFVDFLSDEIKEERKIQKHKTLPKMSGGWELELNGTEAKLVRKVAGEKITVTFNINNSIPPTFDGEEEPSQGQKVEEQEPELTSTPNFVVEVIKNDDGKKALVLDCHYPEDEVGQEDEAESDIFSIREVSFQSTGESEWKDTNYTLNTDSLDWALYDHLMDFLADRGVDNTFADELVELSTALEHQEYITFLEDLKSFVKSQ
notes: prey protein
Consider B4, for which the “Relative protein level (log2) WT/noDox” value in assay [2] was found to be 2.689 log2.

B5: LMNA (protein, UniProt P02545 1-661, looked up)
Prelamin-A/C: METPSQRRATRSGAQASSTPLSPTRITRLQEKEDLQELNDRLAVYIDRVRSLETENAGLRLRITESEEVVSREVSGIKAAYEAELGDARKTLDSVAKERARLQLELSKVREEFKELKARNTKKEGDLIAAQARLKDLEALLNSKEAALSTALSEKRTLEGELHDLRGQVAKLEAALGEAKKQLQDEMLRRVDAENRLQTMKEELDFQKNIYSEELRETKRRHETRLVEIDNGKQREFESRLADALQELRAQHEDQVEQYKKELEKTYSAKLDNARQSAERNSNLVGAAHEELQQSRIRIDSLSAQLSQLQKQLAAKEAKLRDLEDSLARERDTSRRLLAEKEREMAEMRARMQQQLDEYQELLDIKLALDMEIHAYRKLLEGEEERLRLSPSPTSQRSRGRASSHSSQTQGGGSVTKKRKLESTESRSSFSQHARTSGRVAVEEVDEEGKFVRLRNKSNEDQSMGNWQIKRQNGDDPLLTYRFPPKFTLKAGQVVTIWAAGAGATHSPPTDLVWKAQNTWGCGNSLRTALINSTGEEVAMRKLVRSVTVVEDDEDEDGDDLLHHHHGSHCSSSGDPAEYNLRSRTVLCGTCGQPADKASASGSGAQVGGPISSGSSASSVTVTRSYRSVGGSGGGSFGDNLVTRSYLLGNSSPRTQSPQNC
Take B5: the “Relative protein level (log2) WT/MUT” value in assay [3] was 3.361 log2.
